Target: T1, Rrp44 D171N/D551N (S. cerevisiae, UniProt Q08162 1-1001, D171N | D551N)
T1 sequence: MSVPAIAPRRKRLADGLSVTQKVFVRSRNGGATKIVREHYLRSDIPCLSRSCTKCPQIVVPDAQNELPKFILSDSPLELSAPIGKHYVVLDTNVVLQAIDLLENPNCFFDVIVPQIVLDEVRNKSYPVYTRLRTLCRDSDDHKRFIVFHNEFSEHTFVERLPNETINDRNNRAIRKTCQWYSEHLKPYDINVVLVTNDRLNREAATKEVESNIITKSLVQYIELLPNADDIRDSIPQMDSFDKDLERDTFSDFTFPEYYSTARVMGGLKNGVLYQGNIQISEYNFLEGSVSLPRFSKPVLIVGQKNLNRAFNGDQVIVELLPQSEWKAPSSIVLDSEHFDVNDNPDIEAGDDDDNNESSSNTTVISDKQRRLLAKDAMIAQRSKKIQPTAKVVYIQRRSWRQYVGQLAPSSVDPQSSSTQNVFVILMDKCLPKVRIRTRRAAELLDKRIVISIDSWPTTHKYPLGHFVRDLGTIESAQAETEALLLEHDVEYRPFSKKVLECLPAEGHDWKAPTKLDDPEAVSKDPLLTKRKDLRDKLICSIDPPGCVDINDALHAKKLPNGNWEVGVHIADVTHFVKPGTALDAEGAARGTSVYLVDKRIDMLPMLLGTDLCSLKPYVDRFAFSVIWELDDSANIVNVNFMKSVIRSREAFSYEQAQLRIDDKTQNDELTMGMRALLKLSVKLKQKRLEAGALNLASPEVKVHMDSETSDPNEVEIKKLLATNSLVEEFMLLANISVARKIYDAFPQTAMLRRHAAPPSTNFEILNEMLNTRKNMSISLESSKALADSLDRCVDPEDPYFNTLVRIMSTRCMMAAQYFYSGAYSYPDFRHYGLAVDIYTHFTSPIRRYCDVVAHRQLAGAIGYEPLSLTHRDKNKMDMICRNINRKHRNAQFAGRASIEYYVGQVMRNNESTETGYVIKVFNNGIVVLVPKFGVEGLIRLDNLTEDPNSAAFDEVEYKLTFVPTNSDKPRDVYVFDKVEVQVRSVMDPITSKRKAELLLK
Test: crystal structure

B1: Rrp43 (natural protein, S. cerevisiae)
chain: MAESTTLETIEIHPITFPPEVLARISPELSLQRHLSLGIRPCLRKYEEFRDVAIENNTLSRYADAGNIDTKNNILGSNVLKSGKTIVITSITGGIIEETSAAIKDLDDFGEEELFEVTKEEDIIANYASVYPVVEVERGRVGACTDEEMTISQKLHDSILHSRILPKKALKVKAGVRSANEDGTFSVLYPDELEDDTLNETNLKMKRKWSYVLYAKIVVLSRTGPVFDLCWNSLMYALQSVKLPRAFIDERASDLRMTIRTRGRSATIRETYEIICDQTKSVPLMINAKNIAFASNYGIVELDPECQLQNSDNSEEEEVDIDMDKLNTVLIADLDTEAEETSIHSTISILAAPSGNYKQLTLVGGGAKITPEMIKRSLLLSRVRADDLSTRFNI
binding result: binds
